Laboratory results from patent US20240018502A1.
Residue numbers refer to the chain shown, from its start. In names and notes the source's numbering stands. Values belong to the binder of their own block, whether it stands above or below them.

Columns and labels:
Assay in all cases: cell-based or functional assay
[1] = molecular target: human complement protein C3 (human) (UniProt P01024)
[2] = molecular target: proteinase-activated receptor 2 (PAR-2) (UniProt P55085)
[3] = molecular target: complement protein C3 of cynomolgus monkey plasma (cynomolgus monkey)

Chain of human complement protein C3 (human) (P01024 23-667, chain 1 of 2): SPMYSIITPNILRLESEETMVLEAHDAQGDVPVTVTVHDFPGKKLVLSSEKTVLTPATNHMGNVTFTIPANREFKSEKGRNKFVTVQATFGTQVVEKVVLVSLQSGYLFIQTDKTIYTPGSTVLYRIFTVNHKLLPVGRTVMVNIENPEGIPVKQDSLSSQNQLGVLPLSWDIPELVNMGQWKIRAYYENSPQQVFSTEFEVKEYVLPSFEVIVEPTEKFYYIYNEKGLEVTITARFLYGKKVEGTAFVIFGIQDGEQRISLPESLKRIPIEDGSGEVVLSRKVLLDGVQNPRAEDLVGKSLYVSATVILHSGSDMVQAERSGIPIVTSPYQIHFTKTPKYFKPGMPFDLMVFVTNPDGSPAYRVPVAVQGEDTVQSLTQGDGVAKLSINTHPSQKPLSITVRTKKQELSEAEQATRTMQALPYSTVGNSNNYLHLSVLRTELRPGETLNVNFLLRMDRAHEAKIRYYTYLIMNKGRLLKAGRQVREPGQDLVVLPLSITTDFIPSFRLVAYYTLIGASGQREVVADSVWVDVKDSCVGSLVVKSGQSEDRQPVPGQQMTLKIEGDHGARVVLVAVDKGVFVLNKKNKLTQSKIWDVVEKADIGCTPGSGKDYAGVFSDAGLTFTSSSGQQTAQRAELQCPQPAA
Chain of human complement protein C3 (human) (P01024 672-1663, chain 2 of 2): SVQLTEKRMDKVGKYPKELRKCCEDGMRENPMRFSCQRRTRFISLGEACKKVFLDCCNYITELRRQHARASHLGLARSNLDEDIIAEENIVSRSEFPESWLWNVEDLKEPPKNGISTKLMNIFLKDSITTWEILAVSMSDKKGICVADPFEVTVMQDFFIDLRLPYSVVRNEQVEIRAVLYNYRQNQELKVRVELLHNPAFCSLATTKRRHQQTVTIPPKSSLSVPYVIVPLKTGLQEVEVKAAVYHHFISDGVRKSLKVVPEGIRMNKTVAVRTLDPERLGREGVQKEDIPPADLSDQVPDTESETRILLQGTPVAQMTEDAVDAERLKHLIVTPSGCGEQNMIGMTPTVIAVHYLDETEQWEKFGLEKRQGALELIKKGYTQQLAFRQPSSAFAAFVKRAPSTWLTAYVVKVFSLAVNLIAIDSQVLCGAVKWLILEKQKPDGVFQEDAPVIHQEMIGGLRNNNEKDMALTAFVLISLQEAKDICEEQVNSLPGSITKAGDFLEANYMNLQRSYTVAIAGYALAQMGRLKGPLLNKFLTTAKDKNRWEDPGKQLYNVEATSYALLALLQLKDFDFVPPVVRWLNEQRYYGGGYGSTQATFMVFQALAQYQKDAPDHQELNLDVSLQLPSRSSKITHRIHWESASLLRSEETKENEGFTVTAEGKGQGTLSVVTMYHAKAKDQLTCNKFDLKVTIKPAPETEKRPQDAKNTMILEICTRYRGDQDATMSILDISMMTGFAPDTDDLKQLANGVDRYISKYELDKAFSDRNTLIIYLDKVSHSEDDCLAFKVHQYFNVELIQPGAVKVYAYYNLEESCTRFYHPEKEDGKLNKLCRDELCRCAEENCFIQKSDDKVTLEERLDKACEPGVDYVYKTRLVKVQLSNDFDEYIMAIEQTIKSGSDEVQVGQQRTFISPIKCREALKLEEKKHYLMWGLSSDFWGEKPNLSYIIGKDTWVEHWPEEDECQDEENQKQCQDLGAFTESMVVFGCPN
Chain of proteinase-activated receptor 2 (PAR-2) (P55085 37-397 limits assumed): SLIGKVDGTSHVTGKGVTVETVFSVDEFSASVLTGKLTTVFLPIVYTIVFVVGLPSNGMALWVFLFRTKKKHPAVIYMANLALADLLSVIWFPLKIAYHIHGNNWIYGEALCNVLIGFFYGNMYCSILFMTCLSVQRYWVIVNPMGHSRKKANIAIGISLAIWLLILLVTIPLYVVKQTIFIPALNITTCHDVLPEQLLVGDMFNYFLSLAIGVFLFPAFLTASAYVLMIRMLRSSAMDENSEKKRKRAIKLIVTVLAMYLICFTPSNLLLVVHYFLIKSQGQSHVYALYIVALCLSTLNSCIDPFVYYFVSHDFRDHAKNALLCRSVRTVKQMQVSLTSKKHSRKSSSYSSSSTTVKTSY

- PAR-2 cell based assay ED50 and SKGR/SL kcat/Km, against wild-type MTSP-1 protease domain with C122S [2]: > 30 fold
B1: Modified MTSP-1 protease domain Q38H/I41S/D60bT/F60eS/Y60gW/D96K/F97G/ins97aV/T98P/F99L/C122S/G151H/Q175L/Q192D (enzyme)
chain: VVGGTDADEGEWPWQVSLHALGHGHSCGASLISPNWLVSAAHCYIDTRGSRWSDPTQWTAFLGLHDQSQRSAPGVQERRLKRIISHPFFNKGVPLDYDIALLELEKPAEYSSMVRPISLPDASHVFPAGKAIWVTGWGHTQYGGTHALILQKGEIRVINQTTCENLLPQLITPRMMCVGFLSGGVDSCDGDSGGPLSSVEADGRIFQAGVVSWGDGCAQRNKPGVYTRLPLFRDWIKENTGV
- inhibition of classical pathway hemolytic assay (CH50) in human plasma at the highest dose (2000 nM) [1]: 94%

- PAR-2 cell based assay ED50 and SKGR/SL kcat/Km, against wild-type MTSP-1 protease domain with C122S [2]: > 30 fold
B3: Modified MTSP-1 protease domain Q38H/I41A/D60bT/F60eK/Y60gW/F97T/ins97aE/T98G/F99L/C122S/G151N/Q175L/Q192D (enzyme)
chain: B1 chain with S26A, S50K, K91D, G92T, V93E, P94G, H146N

- % Inhibition of CH50, human citrated plasma, 3.2 nM test article [1]: -5%
- % Inhibition of CH50, human citrated plasma, 16 nM test article [1]: 1%
- % Inhibition of CH50, human citrated plasma, 80 nM test article [1]: 40%
- % Inhibition of CH50, human citrated plasma, 400 nM test article [1]: 84%
- % Inhibition of CH50, human citrated plasma, 2000 nM test article [1]: 92%
- EC50 (nM), cleavage of purified hC3 in vitro [1]: 6.86 nM
- C3 destruction ED50 (mg/kg), in vivo, intravenous injection, cynomolgus monkey [3]: 0.07 mg/kg
B7: Q38H/I41S/D60bT/F60eS/Y60gW/D96K/F97G/ins97aV/T98P/F99L/C122S/G151H/Q175L/Q192D (enzyme)
chain: B1 chain

- EC50 (nM), cleavage of purified hC3 in vitro [1]: 2.87 nM
- PAR-2 Cell Based Assay ED50 [2]: 150 nM
B8: Q38H/I41A/D60bV/F60eR/Y60gW/D96I/F97N/T98G/F99L/C122S/G151N/Q175L/Q192D (enzyme)
chain: VVGGTDADEGEWPWQVSLHALGHGHACGASLISPNWLVSAAHCYIDVRGRRWSDPTQWTAFLGLHDQSQRSAPGVQERRLKRIISHPFFNINGLDYDIALLELEKPAEYSSMVRPISLPDASHVFPAGKAIWVTGWGHTQYGGTNALILQKGEIRVINQTTCENLLPQLITPRMMCVGFLSGGVDSCDGDSGGPLSSVEADGRIFQAGVVSWGDGCAQRNKPGVYTRLPLFRDWIKENTGV

Further lines, the binder ahead of its results:

B2: Q38H/I41A/D60bV/F60eR/Y60gW/D96I/F97Y/ins97aN/T98G/F99L/C122S/G151N/Q175L/Q192D (enzyme)
chain: B1 chain with S26A, T47V, S50R, K91I, G92Y, V93N, P94G, H146N
- PAR-2 Cell Based Assay ED50 [2]: 450 nM
- C3 destruction ED50 (mg/kg), in vivo, intravenous injection, cynomolgus monkey [3]: 0.06 mg/kg

B4: Q38H/I41A/D60bV/F60eR/Y60gW/F97T/ins97aE/T98G/F99L/C122S/G151N/Q175L/Q192D (enzyme)
chain: B1 chain with S26A, T47V, S50R, K91D, G92T, V93E, P94G, H146N
- PAR-2 Cell Based Assay ED50 [2]: 690 nM
- C3 destruction ED50 (mg/kg), in vivo, intravenous injection, cynomolgus monkey [3]: 0.2 mg/kg

B5: Q38H/I41S/D60bT/F60eS/Y60gW/F97D/ins97aV/T98P/F99L/C122S/G151H/Q175L/Q192E (enzyme)
chain: B1 chain with K91D, G92D, D189E
- PAR-2 Cell Based Assay ED50 [2]: 1800 nM
- C3 destruction ED50 (mg/kg), in vivo, intravenous injection, cynomolgus monkey [3]: 0.1 mg/kg

B6: Q38H/I41A/D60bT/F60eK/Y60gW/F97T/ins97aE/T98G/F99L/C122S/G151N/Q175L/Q192D (enzyme)
chain: B1 chain with S26A, S50K, K91D, G92T, V93E, P94G, H146N
- PAR-2 Cell Based Assay ED50 [2]: 1900 nM
- C3 destruction ED50 (mg/kg), in vivo, intravenous injection, cynomolgus monkey [3]: 0.2 mg/kg
